Reference: article PMC9389042, “Atypical IκB Bcl3 enhances the generation of the NF-κB p52 homodimer” (Frontiers in Cell and Developmental Biology, 2022)

T1: p52 (1-341) fused to a BiFC fragment (human, UniProt Q00653 1-341)
T1 construct: NF-kappaB p52 (processed product of NF-kappaB2/p100), rel homology region, residues 1-341; Three constructs that differ only in the fluorescent-protein fragment are written as one molecule; The methods give limits for p52-VN and p52-CC only; also called p52-VN; p52-CC; not shown: BiFC fragment behind a (GGGGS)2 linker (Venus 1-172 in p52-VN; Cerulean 155-238 in p52-CC; N-terminal fragment of …)
T1 sequence (looked up): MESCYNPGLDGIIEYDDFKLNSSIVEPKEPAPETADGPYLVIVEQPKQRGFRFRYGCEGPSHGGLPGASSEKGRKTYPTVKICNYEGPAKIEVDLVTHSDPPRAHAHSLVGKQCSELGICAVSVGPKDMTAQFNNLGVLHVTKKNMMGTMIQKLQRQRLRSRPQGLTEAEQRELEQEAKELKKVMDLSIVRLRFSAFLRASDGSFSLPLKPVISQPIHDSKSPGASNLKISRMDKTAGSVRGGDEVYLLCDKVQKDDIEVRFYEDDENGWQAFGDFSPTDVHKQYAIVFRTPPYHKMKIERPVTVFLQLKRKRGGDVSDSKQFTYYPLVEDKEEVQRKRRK

T2: Recombinant non-tagged human p50 (1-435) (human, UniProt P19838 1-435)
T2 chain: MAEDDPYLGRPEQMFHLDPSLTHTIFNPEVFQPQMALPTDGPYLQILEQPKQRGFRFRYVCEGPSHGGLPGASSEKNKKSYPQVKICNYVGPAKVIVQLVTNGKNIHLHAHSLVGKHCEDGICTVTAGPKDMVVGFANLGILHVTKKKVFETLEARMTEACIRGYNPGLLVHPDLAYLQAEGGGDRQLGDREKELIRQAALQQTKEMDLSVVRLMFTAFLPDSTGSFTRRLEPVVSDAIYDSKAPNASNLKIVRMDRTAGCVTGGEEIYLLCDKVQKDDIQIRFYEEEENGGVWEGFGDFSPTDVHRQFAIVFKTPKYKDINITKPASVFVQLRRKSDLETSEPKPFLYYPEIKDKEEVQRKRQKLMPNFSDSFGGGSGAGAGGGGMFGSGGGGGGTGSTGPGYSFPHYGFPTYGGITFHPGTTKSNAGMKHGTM

T3: Recombinant non-tagged human p52 (1-398) (human, UniProt Q00653 1-398)
T3 chain: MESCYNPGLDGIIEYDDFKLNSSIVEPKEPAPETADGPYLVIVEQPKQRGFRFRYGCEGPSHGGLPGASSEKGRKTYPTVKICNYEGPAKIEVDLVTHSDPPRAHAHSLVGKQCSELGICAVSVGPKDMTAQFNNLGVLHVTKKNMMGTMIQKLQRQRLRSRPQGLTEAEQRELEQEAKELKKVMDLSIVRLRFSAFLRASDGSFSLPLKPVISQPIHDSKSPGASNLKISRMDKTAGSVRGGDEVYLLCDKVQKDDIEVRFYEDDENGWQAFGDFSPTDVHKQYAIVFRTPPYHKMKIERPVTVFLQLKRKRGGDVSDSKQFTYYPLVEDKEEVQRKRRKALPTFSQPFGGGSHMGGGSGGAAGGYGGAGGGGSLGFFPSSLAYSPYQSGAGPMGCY


How the values were obtained:
[1] = target: T1, p52 (1-341) fused to a BiFC fragment; test: split reporter (BiFC, NanoBiT); multicolor BiFC: three BiFC constructs (VN, CC, CN) co-expressed in HEK 293T cells so that two dimers compete, with or without co-expressed Bcl3 or RelB; cells fixed with methanol 48 h after transfection; Venus and Cerulean intensity as percent of the two-construct reference; conditions: partners not purified
[2] = target: T2, Recombinant non-tagged human p50 (1-435); test: BLI; p50:p50 homodimer; duplicate experiment
[3] = target: T3, Recombinant non-tagged human p52 (1-398); test: BLI; p52:p52 homodimer
[4] = target: T2, Recombinant non-tagged human p50 (1-435); test: BLI; p50:p50 homodimer; duplicate experiment
[5] = target: T3, Recombinant non-tagged human p52 (1-398); test: BLI; p52:p52 homodimer; duplicate experiment
[6] = target: T2, Recombinant non-tagged human p50 (1-435); test: BLI; p50:p50 homodimer
[7] = target: T3, Recombinant non-tagged human p52 (1-398); test: BLI; p52:p52 homodimer
[8] = target: T3, Recombinant non-tagged human p52 (1-398); test: BLI; p52:p52 homodimer; duplicate experiment
[9] = target: T2, Recombinant non-tagged human p50 (1-435); test: BLI; p50:p50 homodimer

Row | fold more stable than the p52:p52 homodimer (BiFC fluorescence, without Bcl3) [1] | Kd [2] | Kd [3] | koff [4] | Kd [5] | koff [6] | koff [7] | koff [8] | Kd [9] | Binder
1 | ~20 fold |  |  |  |  |  |  |  |  | RelB (1-400) fused to a BiFC fragment (domain or fragment, UniProt Q04863 1-400, looked up, RelB, rel homology region, residues 1-400; Three constructs that differ only in the fluorescent-protein fragment are written as one molecule; The methods give limits for RelB-CN only; also called RelB-CN; RelB-VN; not shown: BiFC fragment behind a (GGGGS)2 linker (Cerulean 1-172 in RelB-CN; N-terminal fragment of Venus in RelB-VN; C-terminal fragment of Cerulean in RelB-CC; one for each …)) MPSRRAARESAPELGALGSSDLSSLSLTVSRTTDELEIIDEYIKENGFGLDGTQLSEMPRLVPRGPASLSSVTLGPAAPPPPATPSWSCTLGRLVSPGPCPRPYLVITEQPKQRGMRFRYECEGRSAGSILGESSTEASKTLPAIELRDCGGLREVEVTACLVWKDWPHRVHPHSLVGKDCTDGVCRVRLRPHVSPRHSFNNLGIQCVRKKEIEAAIERKIQLGIDPYNAGSLKNHQEVDMNVVRICFQASYRDQQGHLHRMDPILSEPVYDKKSTNTSELRICRINKESGPCTGGEELYLLCDKVQKEDISVVFSTASWEGRADFSQADVHRQIAIVFKTPPYEDLEISEPVTVNVFLQRLTDGVCSEPLPFTYLPRDHDSYGVDKKRKRGLPDVLGEL
2 |  | 6.56 nM | 3.12 nM | 0.00033 s⁻¹ | 2.4 nM | 0.000354 s⁻¹ | 0.000393 s⁻¹ | 0.000323 s⁻¹ | 6.87 nM | His-Bcl3(1-446) (natural protein) MDEGPVDLRTRPKAAGLPGAALPLRKRPLRAPSPEPAAPRGAAGLVVPLDPLRGGCDLPAVPGPPHGLARPEALYYPGALLPLYPTRAMGSPFPLVNLPTPLYPMMCPMEHPLSADIAMATRADEDGDTPLHIAVVQGNLPAVHRLVNLFQQGGRELDIYNNLRQTPLHLAVITTLPSVVRLLVTAGASPMALDRHGQTAAHLACEHRSPTCLRALLDSAAPGTLDLEARNYDGLTALHVAVNTECQETVQLLLERGADIDAVDIKSGRSPLIHAVENNSLSMVQLLLQHGANVNAQMYSGSSALHSASGRGLLPLVRTLVRSGADSSLKNCHNDTPLMVARSRRVIDILRGKATRPASTSQPDPSPDRSANTSPESSSRLSSNGLLSASPSSSPSQSPPRDPPGFPMAPPNFFLPSPSPPAFLPFAGVLRGPGRPVPPSPAPGGS
